Square brackets hold non-standard residues; d marks the D form. Primed or numbered codes have the meaning given here. Ends that are not written are not given here. * marks the point of attachment. acetamidofluorescein″ = acetamidofluorescein (5-iodoacetamidofluorescein attached to the C-terminal Cys); Fluorescein(5-NHCOCH2) = O=C(C*)Nc1ccc2c(c1)C(=O)OC21c2ccc(O)cc2Oc2cc(O)ccc21; pS = N[C@@H](COP(=O)(O)O)C(=O)O
B1: PPKID6^P (designed binder)
peptide: GISWPTFEGDDAPVRRL[pS]FFYILLDLYLDAPGVC(Fluorescein(5-NHCOCH2))-NH2
modifications: N-terminus assumed
SMILES: CC[C@H](C)[C@H](NC(=O)CN)C(=O)N[C@@H](CO)C(=O)N[C@@H](Cc1c[nH]c2ccccc12)C(=O)N1CCC[C@H]1C(=O)N[C@H](C(=O)N[C@@H](Cc1ccccc1)C(=O)N[C@@H](CCC(=O)O)C(=O)NCC(=O)N[C@@H](CC(=O)O)C(=O)N[C@@H](CC(=O)O)C(=O)N[C@@H](C)C(=O)N1CCC[C@H]1C(=O)N[C@H](C(=O)N[C@@H](CCCNC(=N)N)C(=O)N[C@@H](CCCNC(=N)N)C(=O)N[C@@H](CC(C)C)C(=O)N[C@@H](COP(=O)(O)O)C(=O)N[C@@H](Cc1ccccc1)C(=O)N[C@@H](Cc1ccccc1)C(=O)N[C@@H](Cc1ccc(O)cc1)C(=O)N[C@H](C(=O)N[C@@H](CC(C)C)C(=O)N[C@@H](CC(C)C)C(=O)N[C@@H](CC(=O)O)C(=O)N[C@@H](CC(C)C)C(=O)N[C@@H](Cc1ccc(O)cc1)C(=O)N[C@@H](CC(C)C)C(=O)N[C@@H](CC(=O)O)C(=O)N[C@@H](C)C(=O)N1CCC[C@H]1C(=O)NCC(=O)N[C@H](C(=O)N[C@@H](CSCC(=O)Nc1ccc2c(c1)C(=O)OC21c2ccc(O)cc2Oc2cc(O)ccc21)C(N)=O)C(C)C)[C@@H](C)CC)C(C)C)[C@@H](C)O
notes: also called PPKID6 (phosphorylated)
B2: p4100 (designed binder)
peptide: GPSQPTYPGDDAPVEDLIRFVGRLLRYFGDEINRYC(5‑iodoacetamidofluorescein)-NH2
notes: As for p4099: amino terminal portion from aPP (e.g., residues 1-19); also called p4122 (labelled form, by order and mass)
B3: p4101 (designed binder)
peptide: GPSQPTYPGDDAPVEDLIRFVGRLLAYFGDDINRYC(5‑iodoacetamidofluorescein)-NH2
notes: As for p4099: amino terminal portion from aPP (e.g., residues 1-19); also called p4123 (labelled form, by order and mass)
B4: p4102 (designed binder)
peptide: GPSQPTYPGDDAPVEDLIRFVSRLRYIADLINRYC(5‑iodoacetamidofluorescein)-NH2
notes: Mutant with a single amino acid deletion in the alpha-helix; Amino terminal portion from aPP (e.g., residues 1-19); also called p4124 (labelled form, by order and mass)

Biological target: T1, HisKIX (UniProt P45481 586-672)
T1 construct: range 586-672; the residue numbers fit mouse CBP; also called His-tagged CBP KIX domain; CBP KIX; not shown: amino-terminal hexahistidine tag and linker of pET15b
Test: FP with HisKIX

T1 sequence (P45481 586-672): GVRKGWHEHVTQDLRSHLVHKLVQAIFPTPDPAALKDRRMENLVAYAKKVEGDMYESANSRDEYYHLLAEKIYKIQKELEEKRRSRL

With B1 the “fold enhancement in affinity over unphosphorylated PPKID6” value was 2 fold.

B1 was tested, and the “ΔΔG relative to unphosphorylated PPKID6” value was -0.5 kcal/mol.

Biological target: T2, CBP KIX, wild type (Example 20) (UniProt P45481 586-665, limits assumed)
T2 construct: domain: KIX; also called wild type CBP KIX; CBP MX
Test: FP with CBP KIX

T2 sequence (P45481 586-665 limits assumed): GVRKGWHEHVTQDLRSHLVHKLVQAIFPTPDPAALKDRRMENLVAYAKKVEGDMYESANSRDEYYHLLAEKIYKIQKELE

In order of falling “ΔΔG relative to wild type PPKID4^P” value:
1. GPSQPTYPGDDAPVRRL[pS]FFYILLDLALDAPGVC(acetamidofluorescein″)-NH2 (designed binder) [PPKID4^P Y27A]  0.96 kcal/mol
2. GPSQPTYPGDDAPVRRL[pS]FAYILLDLYLDAPGVC(acetamidofluorescein″)-NH2 (designed binder) [PPKID4^P F20A]  0.85 kcal/mol
3. GPSQPTYPGDDAPVRRL[pS]FFYILADLYLDAPGVC(acetamidofluorescein″)-NH2 (designed binder) [PPKID4^P L24A]  0.38 kcal/mol
4. GPSQPTYAGDDAPVRRL[pS]FFYILLDLYLDAPGVC(acetamidofluorescein″)-NH2 (designed binder) [PPKID4^P P8A]  0.33 kcal/mol
5. GPSQATYPGDDAPVRRL[pS]FFYILLDLYLDAPGVC(acetamidofluorescein″)-NH2 (designed binder) [PPKID4^P P5A]  0.3 kcal/mol
6. GASQPTYPGDDAPVRRL[pS]FFYILLDLYLDAPGVC(acetamidofluorescein″)-NH2 (designed binder) [PPKID4^P P2A]  0.21 kcal/mol
7. GPSQPTYPGDDAPVRRL[pS]FFYILLDLYADAPGVC(acetamidofluorescein″)-NH2 (designed binder) [PPKID4^P L28A]  0.18 kcal/mol
8. GPSQPTYPGDDAPVRRA[pS]FFYILLDLYLDAPGVC(acetamidofluorescein″)-NH2 (designed binder) [PPKID4^P L17A]  0.07 kcal/mol

Biological target: T1, HisKIX
Test: FP, fluorescein-labelled peptide titrated with HisKIX, 25 C

B1 gave a Kd of 624 nM.

Biological target: T2, CBP KIX, wild type (Example 20)
Test: FP, fluorescein-labelled PPKID4^P variant titrated with CBP KIX

In order of falling Kd:
1. GPSQPTYPGDDAPVRRL[pS]FFYILLDLALDAPGVC(acetamidofluorescein″)-NH2 (designed binder) [PPKID4^P Y27A]  3090 nM
2. GPSQPTYPGDDAPVRRL[pS]FAYILLDLYLDAPGVC(acetamidofluorescein″)-NH2 (designed binder) [PPKID4^P F20A]  2550 nM
3. GPSQPTYPGDDAPVRRL[pS]FFYILADLYLDAPGVC(acetamidofluorescein″)-NH2 (designed binder) [PPKID4^P L24A]  1160 nM
4. GPSQPTYAGDDAPVRRL[pS]FFYILLDLYLDAPGVC(acetamidofluorescein″)-NH2 (designed binder) [PPKID4^P P8A]  1070 nM
5. GPSQATYPGDDAPVRRL[pS]FFYILLDLYLDAPGVC(acetamidofluorescein″)-NH2 (designed binder) [PPKID4^P P5A]  1020 nM
6. GASQPTYPGDDAPVRRL[pS]FFYILLDLYLDAPGVC(acetamidofluorescein″)-NH2 (designed binder) [PPKID4^P P2A]  870 nM
7. GPSQPTYPGDDAPVRRL[pS]FFYILLDLYADAPGVC(acetamidofluorescein″)-NH2 (designed binder) [PPKID4^P L28A]  830 nM
8. GPSQPTYPGDDAPVRRA[pS]FFYILLDLYLDAPGVC(acetamidofluorescein″)-NH2 (designed binder) [PPKID4^P L17A]  680 nM

Biological target: T3, Human recombinant Bcl-2 (1-205), soluble GST-fusion (Santa Cruz Biotechnology) (human, UniProt P10415 1-205)
T3 construct: Bought; also called GST-Bcl-2; not shown: glutathione S-transferase (GST) fusion partner
Test: fluorescence emission titration, fluorescein-labelled peptide + serially diluted Bcl-2, 4 C, PBS

T3 sequence (P10415 1-205): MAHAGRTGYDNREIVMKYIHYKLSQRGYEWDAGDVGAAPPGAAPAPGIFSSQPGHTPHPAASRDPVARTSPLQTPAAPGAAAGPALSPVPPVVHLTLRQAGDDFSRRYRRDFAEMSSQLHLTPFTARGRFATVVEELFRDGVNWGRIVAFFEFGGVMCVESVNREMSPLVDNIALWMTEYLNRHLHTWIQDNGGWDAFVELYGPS

In order of rising Kd:
1. B2  401 nM
2. B3  811 nM
3. B4  3700 nM

Reference: patent US20110028686A1 (published 2011)
